Data reported in patent publication US20100095387A1, “METHODS AND REAGENTS FOR SCREENING NEW DRUGS AND FOR TREATING ION PUMP ASSOCIATED DISORDERS AND DISEASES” (priority 2005, published 2010).
“Also recorded” adds a separate entry of the source.

B1: C-Ag20z0: C-Ag20 isoform having the z0 splice variant, SEQ. ID NO. 1 (protein)
chain: MDPRTYIEYLNAVTESEKALQSNHFELTLRTEATQGWLVLWIGKAAERADYMALAIVDGHLQLSYDLASQPVVLRSTVKVNTNRWLRVRAHREHREGSLQVGNEAPVTSSSPLGATQLDTDGALWLGGLQKLPVGQPLPKAYGTGFVGCLRNVVGHRQLHLLEDAVTKPELRPCPTLNSKLGPEQKLISEEDLNSAVDHHHHHH
modifications: Synthetically produced sequence
B2: C-Ag20z8: C-Ag20 isoform having the z8 splice variant, SEQ. ID NO. 2 (protein)
chain: MDPRTYIEYLNAVTESELTNEIPAEKALQSNHFELTLRTEATQGWLVLWIGKAAERADYMALAIVDGHLQLSYDLASQPVVLRSTVKVNTNRWLRVRAHREHREGSLQVGNEAPVTSSSPLGATQLDTDGALWLGGLQKLPVGQPLPKAYGTGFVGCLRNVVGHRQLHLLEDAVTKPELRPCPTLNSKLGPEQKLISEEDLNSAVDHHHHHH
modifications: Synthetically produced sequence
B3: rC-Agy4z8: soluble 95-kD COOH-terminal fragment of rat agrin, active "neural" isoform (protein)
chain: AATGTTAAMATARATTVSRLPASSVTPRVYPSHTSRPVGRTTAPPTTRRPPTTATNMDRPRTPGHQQPSKSCDSQPCLHGGTCQDQDSGKGFTCSCTAGRGGSVCEKVQPPSMPAFKGHSFLAFPTLRAYHTLRLALEFRALETEGLLLYNGNARGKDFLALALLDGRVQFRFDTGSGPAVLTSLVPVEPGRWHRLELSRHWRQGTLSVDGETPVVGESPSGTDGLNLDTNLYVGGIPEEQVAMVLDRTSVGVGLKGCIRMLDINNQQLELSDWQRAAVQSSGVGECGDHPCLPNPCHGGALCQALEAGMFLCQCPPGRFGPTCADEKSPCQPNPCHGAAPCRVLSSGGAKCECPLGRSGTFCQTVLETAGSRPFLADFNGFSYLELKGLHTFERDLGEKMALEMVFLARGPSGLLLYNGQKTDGKGDFVSLALHNRHLEFCYDLGKGAAVIRSKEPIALGTWVRVFLERNGRKGALQVGDGPRVLGESPKSRKVPHTMLNLKEPLYIGGAPDFSKLARGAAVSSGFSGVIQLVSLRGHQLLTQEHVLRAVDVSPFADHPCTQALGNPCLNGGSCVPREATYECLCPGGFSGLHCEKGLVEKSVGDLETLAFDGRTYIEYLNAVIESPETLDSRALFSEKALQSNHFELSLRTEATQGLVLWIGKAAERADYMALAIVDGHLQLSYDLGSQPVVLRSTVKVNTNRWLRIRAHREHREGSLQVGNEAPVTGSSPLGATQLDTDGALWLGGLQKLPVGQALPKAYGTGFVGCLRDVVVGHRQLHLLEDAVTKPELRPCPTP

Experiments:
α3Na+/K+-ATPase [1] = biological target: T1, α3Na+/K+-ATPase (Mus musculus, UniProt Q6PIC6); experiment: Whole cell current clamp of cultured cortical neurons, channel blockers present; type: cell-based; details: fragment alone
[2] = test system: cultured cortical neurons; experiment: Firing properties of cultured cortical neurons in normal external solution; type: cell-based, mouse; details: normal external solution
[3] = test system: layer V neurons in acute cortical slices; experiment: Whole cell current clamp of layer V neurons in acute cortical slices; type: cell-based, mouse
cardiac myocytes = experiment: Spontaneous contraction frequency of cultured cardiac myocytes; type: cell-based, mouse; details: Agrn+/− and Agrn−/− myocytes grown in fragment; listed as C-Ag208
Experimental: FIG. 17. Cardiac myocyte contraction is agrin dependent. Cardiac myocytes were prepared from hearts of individual embryos produced by heterozygous pairings. The genotype of cultures was determined by PCR analysis of tissue samples from each embryo. Myocytes were maintained in 199 medium containing 10% FCS as described (Mitcheson et al., 1998). At 5 days in culture, the frequency of spontaneous contractions was determined by counting contractions in myocytes from 5 random fields at 300× magnification for 30 seconds. Contraction frequency is dependent on Agrn gene dosage such that Agrn−/−>Agrn+/−>Agrn+/+. Addition of C-Ag208 to the growth medium rescues the Agrn mutant phenotype whereas C-Ag15 increased the contraction frequency of wild type myocytes to a level similar to Agrn−/− cells. Bars show mean±SEM for a minimum of 2 independent platings from 3 embryos, except for Agrn+/−treated with C-Ag208, which was a single plating of 2 embryos. All data were collected blind with respect to genotype and agrin treatment. *** p≦0.001. ANOVA with Bonferroni post-hoc pair-wise comparison.
Quantitative studies confirmed and extended these observations by showing that the frequency of myocyte contraction is dependent on agrin gene dose: Agrn−/− myocyte contraction frequency is about 2-fold higher and Agrn+/− 1.5-fold higher than Agrn+/+ myocytes (FIG. 17). To learn whether the effect of the Agrn mutation on myocyte contraction is a direct result of the loss of agrin expression the effects of growing the cells in media supplemented with C-Ag208, an active agrin fragment, or C-Ag15, the agrin antagonist was next examined.

[4] = biological target: T2, α3 subunit of the Na+/K+-ATPase (Mus musculus, UniProt Q6PIC6); experiment: Chemical cross-linking of agrin fragments to cortical neurons, immunoprecipitation and immunoblot; type: binding; details: immunoprecipitation with phosphotyrosine antibody mAb4G10
T2 construct: a 110 kDa band characteristic of the native α3Na+/K+-ATPase; endogenous in cells; host or cells: primary mouse cortical neurons, 10-16 days in culture
Experimental: Membrane impermeant chemical cross-linking agents BS^3 and DMA were used to stabilize the bond between agrin and its binding sites on cell surface membranes. Cultured neurons were washed briefly in PBS containing 10 mM EDTA followed by preincubation with one or more agrin fragment in PBS^2+ for 30 minutes at room temperature and then cooled on ice prior to addition of a 10× solution of cross-linking agent to a final concentration of 0.1 mM. The cross-linking reaction was allowed to proceed for 30 minutes after which any unreacted cross-linker was quenched and removed by washing with ice cold PBS^2+ containing 50 mM ethanolamine. For immunoblot analysis, cells were scraped into ice-cold TI buffer (20 mM Tris, pH 7.4; 10 mM EDTA; protease inhibitors (Sigma, P8340)) then Dounce homogenized and membrane fraction recovered by centrifugation. For the immunoprecipitation studies, cells were scraped and homogenized in TI buffer containing 150 mM NaCl and 0.5% Triton X-100. Cell extracts were cleared by centrifugation and aliquots of the detergent soluble fraction incubated with the appropriate antibody at 4° C. overnight. Antigen-antibody complexes were precipitated with either protein A or protein G and resuspended in SDS-PAGE sample buffer for immunoblot analysis.
Ligand induced phosphorylation is a common first step in membrane receptor activation and inhibition of tyrosine kinase activity blocks agrin signalling in central nervous system neurons. To determine if agrin induced phosphorylation of the putative agrin receptor, membranes from neurons cross-linked to C-Ag208 or C-Ag15, alone or in combination, were dissolved, in a detergent-containing buffer and aliquots immunoprecipitated with RAg1 or the phosphotyrosine antibody mAb4G10 (Upstate). Immunoprecipitated proteins were analyzed by immunoblotting with a monoclonal antibody (9E10.2, Invitrogen) against the COON-terminal myc tag on the agrin fragments.
To confirm the results of the mass spectrometry the ability of different α-subunit antibodies to recognize the putative agrin-Na^+/K^+-ATPase complex was tested. […]

α3Na+/K+-ATPase [5] = biological target: T1, α3Na+/K+-ATPase; experiment: Na+ imaging (SBFI-AM) of cultured cortical cells; type: cell-based
agrin receptors = agrin receptors (Mus musculus, UniProt Q6PIC6); experiment: Agrin receptor immunohistochemistry, binding of short agrin fragments to live cortical neurons
Experimental: The distribution of agrin receptors was studied using agrin deletion fragments as affinity probes. Neurons, plated on glass coverslips, were washed briefly (1-2 min) in cold PBS containing 10 mM EDTA followed by a second wash in cold PBS alone before incubation for 15 min at 4° C. with 1 pM recombinant mouse agrin in NBM. In some experiments, labeling with mouse agrin was performed in the presence of various concentrations of rat rC-Ag95y4z8 or rC-Agy0z0. Control cultures were treated with vector control protein or an equivalent volume of vehicle in which the recombinant agrin was dissolved. Cells were then washed in cold NBM, fixed for 40 min on ice in 4% PFA in PBS, then washed in PBS and blocked for 1 h in PBSB. Recombinant agrin was detected through the COOH-terminal 6× polyhistidine tag using an anti-his antibody (1:500; Invitrogen). In experiments where cells were double labeled for synaptophysin, the anti-synaptophysin:antiserum (1:400) was also added at this step. Incubations were performed overnight at 4° C. in PBSB, followed by labeling with fluorescein conjugated goat anti-mouse and Texas red labeled anti-rabbit antibodies as described in the previous paragraphs. In some experiments, the amount of mouse agrin bound was estimated by digital photomicrography using the public domain NIH Image program (http://rsb.info.nih.gov/nih-image/).

Molecule | effect on neuron membrane potential (α3Na+/K+-ATPase [1]) | membrane potential [2] | action potentials ([3]; bath application of fragment alone) | membrane depolarization ([3]; bath application, slices from 6-11 day-old mice) [mV] | contraction frequency (cardiac myocytes) | tyrosine phosphorylation of the cross-linked complex [4] | neuronal intracellular Na+ (α3Na+/K+-ATPase [5]; fragment or ouabain alone, neurons) | intracellular Na+ in non-neuronal cells (α3Na+/K+-ATPase [5]; non-neuronal cells) | C-Ag20z8 labeling (agrin receptors; 1:100 molar ratio of C-Ag20z8 to rC-Agy4z8) | binding of C-Ag20z8, C-Ag20z0 and C-Ag15 (agrin receptors; large (500-fold molar) excess of rat agrin)
B1 | rapid and reversible depolarization | rapidly depolarized | appearance of high frequency action potentials | 9.6±2.22 |  |  |  |  |  | 
B2 | rapid and reversible depolarization |  |  |  | significant decrease; also recorded: rescues | phosphorylated | rapid increase | unaffected |  | 
B3 |  |  |  |  |  |  |  |  | barely detectable | completely blocked
